Data on 6 molecules can be found in US20130005646A1 (Novo Nordisk, published 2013).

Holding throughout (experiment): cell-based or functional assay
The target of experiment [1] is T1, human amylin 3(a) receptor (human calcitonin receptor co-expressed with RAMP-3) (human, UniProt P30988 25-474; O60896 24-148).
T1 sequence (looked up) 1: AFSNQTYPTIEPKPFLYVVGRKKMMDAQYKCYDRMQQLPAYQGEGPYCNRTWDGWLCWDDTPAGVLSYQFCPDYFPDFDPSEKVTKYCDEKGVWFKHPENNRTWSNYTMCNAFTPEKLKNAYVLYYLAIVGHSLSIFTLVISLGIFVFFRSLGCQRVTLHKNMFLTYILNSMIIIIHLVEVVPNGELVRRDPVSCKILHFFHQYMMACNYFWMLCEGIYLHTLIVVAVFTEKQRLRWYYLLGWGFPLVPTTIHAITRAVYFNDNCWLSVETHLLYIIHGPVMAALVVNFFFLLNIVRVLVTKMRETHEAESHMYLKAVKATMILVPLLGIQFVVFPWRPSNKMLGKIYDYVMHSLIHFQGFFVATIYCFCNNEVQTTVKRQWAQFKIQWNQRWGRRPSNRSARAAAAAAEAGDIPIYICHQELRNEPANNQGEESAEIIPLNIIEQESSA
T1 sequence (looked up) 2: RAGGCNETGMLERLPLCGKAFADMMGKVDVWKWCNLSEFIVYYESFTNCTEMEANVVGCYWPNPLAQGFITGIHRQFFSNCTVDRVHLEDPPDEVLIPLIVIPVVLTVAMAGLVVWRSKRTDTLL

In experiment [2] the target is T2, human amylin 3(a) receptor (human calcitonin receptor co-expressed with RAMP-3) (human) (UniProt P30988).
T2 sequence (looked up) 1: T1 sequence (looked up) 1
T2 sequence (looked up) 2: T1 sequence (looked up) 2

For experiment [3], the target named is T3, human calcitonin (a) receptor (human) (UniProt P30988).
T3 sequence (looked up): T1 sequence (looked up) 1

Experiment [4] addresses T4, human amylin 3(a) receptor (human calcitonin receptor + RAMP-3) (human) (UniProt P30988).
T4 sequence (looked up) 1: T1 sequence (looked up) 1
T4 sequence (looked up) 2: T1 sequence (looked up) 2

Experiment [5] has as its target T5, human amylin 3(a) receptor (human calcitonin receptor with RAMP-3) (human) (UniProt P30988).
T5 sequence (looked up) 1: T1 sequence (looked up) 1
T5 sequence (looked up) 2: T1 sequence (looked up) 2

Experiment [6] addresses T2, human amylin 3(a) receptor (human calcitonin receptor co-expressed with RAMP-3) (human). This is another data set of the same source.
For the next experiment, the target named is T6, human amylin receptor (human, UniProt P30988 25-474; O60896 24-148, limits assumed).
T6 sequence (looked up) 1: T1 sequence (looked up) 1
T6 sequence (looked up) 2: T1 sequence (looked up) 2

Another experiment has as its target T7, Amylin receptor human (human, UniProt P30988 25-474; O60896 24-148, limits assumed).
T7 sequence (looked up) 1: T1 sequence (looked up) 1
T7 sequence (looked up) 2: T1 sequence (looked up) 2

In experiment [7] the target is T8, rat amylin 3(a) receptor (rat calcitonin(a) receptor + rat RAMP3) (rat, UniProt P32214 25-516; Q9JJ73 23-147).
T8 sequence (looked up) 1: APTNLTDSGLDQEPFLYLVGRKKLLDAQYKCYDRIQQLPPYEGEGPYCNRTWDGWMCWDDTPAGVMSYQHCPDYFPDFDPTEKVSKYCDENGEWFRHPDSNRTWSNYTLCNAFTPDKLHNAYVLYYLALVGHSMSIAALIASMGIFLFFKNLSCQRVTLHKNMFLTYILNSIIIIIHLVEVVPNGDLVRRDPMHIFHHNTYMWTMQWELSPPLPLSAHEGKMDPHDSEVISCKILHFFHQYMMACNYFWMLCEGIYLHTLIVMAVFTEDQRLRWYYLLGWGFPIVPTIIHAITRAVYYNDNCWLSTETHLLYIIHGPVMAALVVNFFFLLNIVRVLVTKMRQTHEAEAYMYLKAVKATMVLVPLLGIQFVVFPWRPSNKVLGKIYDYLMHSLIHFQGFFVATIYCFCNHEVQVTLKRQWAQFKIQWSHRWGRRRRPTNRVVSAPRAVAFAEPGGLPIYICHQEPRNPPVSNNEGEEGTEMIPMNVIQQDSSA
T8 sequence (looked up) 2: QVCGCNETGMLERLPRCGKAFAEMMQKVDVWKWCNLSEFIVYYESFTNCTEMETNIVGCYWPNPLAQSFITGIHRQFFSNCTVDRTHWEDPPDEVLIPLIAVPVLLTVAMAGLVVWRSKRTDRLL

In experiment [8] the target is T9, human amylin 3(a) receptor (human calcitonin receptor + RAMP-3) (human, UniProt P30988 25-474; O60896 24-148).
T9 sequence (looked up) 1: T1 sequence (looked up) 1
T9 sequence (looked up) 2: T1 sequence (looked up) 2

Experiment [9] concerns the target T10, human calcitonin (a) receptor (human, UniProt P30988 25-474).
T10 sequence (looked up): T1 sequence (looked up) 1

The target of experiment [10] is T11, rat calcitonin (a) receptor (rat, UniProt P32214 25-516).
T11 sequence (looked up): T8 sequence (looked up) 1

Where two headings read alike, the source gives them in different places. Starred links: 1 amine or outer side, 2 acyl side, 3 side chain; linkers in the order of their positions; H or OH if unused. Positions of bridges follow the written chain, without caps; N, C: chain ends. Non-standard residues stand in square brackets, D forms with d. *: point of attachment. C20 diacid = O=C(O)CCCCCCCCCCCCCCCCCCC(=O)*; C18 diacid = O=C(O)CCCCCCCCCCCCCCCCC(=O)*; γGlu = O=C(O)[C@H](CCC(=O)[*:2])N[*:1]; Orn = NCCC[C@H](N)C(=O)O; AEEA = NCCOCCOCC(=O)O

B1: N-alpha-[2-(2-{2-[2-(2-{2-[(S)-4-Carboxy-4-(17-carboxyheptadecanoylamino)butyrylamino]ethoxy}ethoxy)acetylamino]ethoxy}ethoxy)acetyl]-D-Arg-D-Arg-[Orn1,Glu14,Hi … (peptide)
peptide: {C18 diacid-γGlu-AEEA-AEEA}-[dR][dR][Orn]CNTATCATQRLAEFLHRSSNNFGPILPPTNVGSNTY-NH2
modifications: disulfide 4-9 (inferred)
Turning to B1, in experiment [1], the “Amylin receptor human EC50 (pM)” value was 29.5 pM.

B2: N-alpha-(19-carboxynonadecanoyl)-Glu-Glu-Arg-[Glu1,Glu14,His17,Pro37]-pramlintide (peptide)
peptide: {C20 diacid}-EERECNTATCATQRLAEFLHHSSNNFGPILPPTNVGSNTP-NH2
modifications: disulfide 5-10 (inferred)
Regarding B2, the Amylin receptor human EC50 (pM) (in experiment [2]; in experiment [5]; in experiment [6]; in the experiment with human amylin receptor; in the experiment with Amylin receptor human) was 288 pM in each case. For the same molecule, the CTa receptor human EC50 in experiment [3] was 443 pM. Also, in [3], the CTa receptor human EC50 (pM) was 443 pM. For the same molecule, the Amylin receptor human EC50 in experiment [4] is 288 pM.

B3: N-alpha-[(S)-4-Carboxy-4-(19-carboxynonadecanoylamino)butyryl]-[Glu1,Gly3,Glu14,Arg18,Ser21,Ser22,Ala25,Pro26,Ser28,Ser29,Glu31,Arg35]-pramlintide (peptide)
peptide: {C20 diacid-γGlu}-ECGTATCATQRLAEFLVRSSSSFGAPLSSTEVGSRTY-NH2
modifications: disulfide 2-7
SMILES: CC(C)C[C@H](NC(=O)[C@H](CCCNC(=N)N)NC(=O)[C@H](CCC(N)=O)NC(=O)[C@@H](NC(=O)[C@H](C)NC(=O)[C@@H]1CSSC[C@H](NC(=O)[C@H](CCC(=O)O)NC(=O)CC[C@H](NC(=O)CCCCCCCCCCCCCCCCCCC(=O)O)C(=O)O)C(=O)NCC(=O)N[C@@H]([C@@H](C)O)C(=O)N[C@@H](C)C(=O)N[C@@H]([C@@H](C)O)C(=O)N1)[C@@H](C)O)C(=O)N[C@@H](C)C(=O)N[C@@H](CCC(=O)O)C(=O)N[C@@H](Cc1ccccc1)C(=O)N[C@@H](CC(C)C)C(=O)N[C@H](C(=O)N[C@@H](CCCNC(=N)N)C(=O)N[C@@H](CO)C(=O)N[C@@H](CO)C(=O)N[C@@H](CO)C(=O)N[C@@H](CO)C(=O)N[C@@H](Cc1ccccc1)C(=O)NCC(=O)N[C@@H](C)C(=O)N1CCC[C@H]1C(=O)N[C@@H](CC(C)C)C(=O)N[C@@H](CO)C(=O)N[C@@H](CO)C(=O)N[C@H](C(=O)N[C@@H](CCC(=O)O)C(=O)N[C@H](C(=O)NCC(=O)N[C@@H](CO)C(=O)N[C@@H](CCCNC(=N)N)C(=O)N[C@H](C(=O)N[C@@H](Cc1ccc(O)cc1)C(N)=O)[C@@H](C)O)C(C)C)[C@@H](C)O)C(C)C
Turning to B3, the “Amylin receptor rat EC50” value in experiment [7] is 4.51 nM. The “Amylin receptor human EC50” value in experiment [8] is 1440 pM. For the same molecule, the “CTa receptor human EC50” value in experiment [9] was 672 pM. In addition, the “CTa receptor rat EC50” value in [10] amounted to 1750 pM.

B4: N-alpha-(19-carboxynonadecanoyl)-Glu-Glu-Arg-[Glu1,Pro37]-pramlintide (peptide)
peptide: {C20 diacid}-EERECNTATCATQRLANFLVHSSNNFGPILPPTNVGSNTP-NH2
modifications: disulfide 5-10
SMILES: CC[C@H](C)[C@H](NC(=O)[C@@H]1CCCN1C(=O)CNC(=O)[C@H](Cc1ccccc1)NC(=O)[C@H](CC(N)=O)NC(=O)[C@H](CC(N)=O)NC(=O)[C@H](CO)NC(=O)[C@H](CO)NC(=O)[C@H](Cc1c[nH]cn1)NC(=O)[C@@H](NC(=O)[C@H](CC(C)C)NC(=O)[C@H](Cc1ccccc1)NC(=O)[C@H](CC(N)=O)NC(=O)[C@H](C)NC(=O)[C@H](CC(C)C)NC(=O)[C@H](CCCNC(=N)N)NC(=O)[C@H](CCC(N)=O)NC(=O)[C@@H](NC(=O)[C@H](C)NC(=O)[C@@H]1CSSC[C@H](NC(=O)[C@H](CCC(=O)O)NC(=O)[C@H](CCCNC(=N)N)NC(=O)[C@H](CCC(=O)O)NC(=O)[C@H](CCC(=O)O)NC(=O)CCCCCCCCCCCCCCCCCCC(=O)O)C(=O)N[C@@H](CC(N)=O)C(=O)N[C@@H]([C@@H](C)O)C(=O)N[C@@H](C)C(=O)N[C@@H]([C@@H](C)O)C(=O)N1)[C@@H](C)O)C(C)C)C(=O)N[C@@H](CC(C)C)C(=O)N1CCC[C@H]1C(=O)N1CCC[C@H]1C(=O)N[C@H](C(=O)N[C@@H](CC(N)=O)C(=O)N[C@H](C(=O)NCC(=O)N[C@@H](CO)C(=O)N[C@@H](CC(N)=O)C(=O)N[C@H](C(=O)N1CCC[C@H]1C(N)=O)[C@@H](C)O)C(C)C)[C@@H](C)O
With B4, the CTa receptor human EC50 in experiment [3] was found to be 61.5 pM. In experiment [4], the Amylin receptor human EC50 came to 45 pM.

B5: N-alpha-[(S)-4-Carboxy-4-(19-carboxynonadecanoylamino)butyryl]-Ser-Ser-Gly-Ser-Ser-[Gly1,Glu14,His17]-pramlintide (peptide)
peptide: {C20 diacid-γGlu}-SSGSSGCNTATCATQRLAEFLHHSSNNFGPILPPTNVGSNTY-NH2
modifications: disulfide 7-12 (inferred)
Regarding B5, the Amylin receptor human EC50 (pM) in [2] was found to be 253 pM. Further, in experiment [3], the CTa receptor human EC50 was found to be 432 pM and the CTa receptor human EC50 (pM) worked out at 432 pM. In addition, the Amylin receptor human EC50 in experiment [4] worked out at 253 pM. For the same molecule, the Amylin receptor human EC50 (pM) in experiment [5] worked out at 253 pM.

B6: N-alpha-[(S)-4-Carboxy-4-(19-carboxynonadecanoylamino)butyryl]-Ser-Ser-Gly-Ser-Ser-Gly-[His1,Glu14,His17]-pramlintide (peptide)
peptide: {C20 diacid-γGlu}-SSGSSGHCNTATCATQRLAEFLHHSSNNFGPILPPTNVGSNTY-NH2
modifications: disulfide 8-13 (inferred)
In the case of B6, the Amylin receptor human EC50 (pM) in experiment [2], in [5] and in experiment [6] was 306 pM in each case. For the same molecule, the CTa receptor human EC50 in experiment [3] stood at 669 pM. In addition, the CTa receptor human EC50 (pM) in [3] was determined as 669 pM. For the same molecule, in experiment [4], the Amylin receptor human EC50 stood at 306 pM.
